Experimental data taken from patent US20170009259A1 (SUMITOMO RUBBER INDUSTRIES, published 2017).

T1: Hevea rubber transferase 2 (HRT2), cis-prenyltransferase from Hevea brasiliensis (Hevea brasiliensis, UniProt Q8W3U4 1-284)
T1 construct: In the yeast two-hybrid assay it was expressed from the pPR3-N prey vector (pPR-HRT2) or the pBT3-SUC bait vector (pBT-HRT2); also called CPT; pPR-HRT2
T1 sequence: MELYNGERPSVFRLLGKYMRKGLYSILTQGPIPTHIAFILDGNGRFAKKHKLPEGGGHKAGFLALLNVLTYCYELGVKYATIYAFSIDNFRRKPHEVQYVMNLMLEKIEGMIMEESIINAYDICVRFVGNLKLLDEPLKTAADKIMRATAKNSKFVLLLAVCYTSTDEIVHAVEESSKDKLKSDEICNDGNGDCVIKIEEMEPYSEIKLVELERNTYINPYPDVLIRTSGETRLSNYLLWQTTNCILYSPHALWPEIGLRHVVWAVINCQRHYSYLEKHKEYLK

B1: Hevea rubber transferase 1 (HRT1), cis-prenyltransferase from Hevea brasiliensis (enzyme)
chain: MELYNGERPSVFRLLGKYMRKGLYSILTQGPIPTHIAFILDGNRRFAKKHKLPEGGGHKAGFLALLNVLTYCYELGVKYATIYAFSIDNFRRKPHEVQYVMDLMLEKIEGMIMEESIINAYDICVRFVGNLKLLSEPVKTAADKIMRATANNSKCVLLIAVCYTSTDEIVHAVEESSELNSNEVCNNQELEEANATGSGTVIQIENMESYSGIKLVDLEKNTYINPYPDVLIRTSGETRLSNYLLWQTTNCILYSPHALWPEIGLRHVVWAVINFQRHYSYLEKHKEYLK
notes: In the yeast two-hybrid assay it was expressed from the pPR3-N prey vector (pPR-HRT1) or the pBT3-SUC bait vector (pBT-HRT1); also called CPT; pPR-HRT1
B2: Nogo-B receptor (NgBr) from Hevea brasiliensis (receptor)
chain: MDLKPGAGGQRVNRLVDPISYHFLQFLWRTLHLLVSLWYLQVSMVQMIEGFLISSGLVKRYGALDIDKVRYLAIVVDSEEAYQISKVIQLLKWVEDMGVKHLCLYDSKGVLKTNKKTIMESLNNAMPFEEAVEKDVLLDQKQMTVEFASSSDGKEAITRAANVLFMKYLKYAKTGVGKEEPCFTEDQMDEALKAIGYKGPEPDLLLIYGPVRCHLGFSPWRLRYTEMVHMGPLRYMNLGSLKKAIHRFTTVQQNYGT
notes: In the yeast two-hybrid assay it was expressed from the pBT3-SUC bait vector (pBT-NgBr); also called pBT-NgBr

What was measured:
[1] = molecular target: B2; test: yeast two-hybrid, pPR-HRT1 prey with pBT-NgBr bait (pair No. 5), growth on Trp-, Leu-, Ade- and His-deficient SD medium
Description: (§1) The yeast strain NMY-51 was transformed with the collected plasmids. The PEG method was used for the double transformation of the yeast. The transformant cells were cultured at 30° C. for three days on Trp- and Leu-deficient SD medium for screening.
(§2) In this experiment, the yeast can grow on the selective medium only when a protein encoded by the gene introduced in the bait plasmid interacts with a protein encoded by the gene introduced in the prey plasmid.

[2] = molecular target: T1, Hevea rubber transferase 2 (HRT2), …; test: yeast two-hybrid, pPR-HRT1 prey with pBT-HRT2 bait (pair No. 6), growth on Trp-, Leu-, Ade- and His-deficient SD medium
Description: as §1, §2

[3] = molecular target: T1, Hevea rubber transferase 2 (HRT2), …; test: yeast two-hybrid, pPR-HRT2 prey with pBT-NgBr bait (pair No. 9), growth on Trp-, Leu-, Ade- and His-deficient SD medium
Description: as §1, §2

| binding result [1] | binding result [2] | binding result [3] | Binder |
| --- | --- | --- | --- |
| binds | no binding |  | B1 |
|  |  | no binding | B2 |
